The record followed here is publication PMC3783652 (ACS chemical biology, 2013).

The target in test [1] is wild type CXCL12 (stromal cell-derived factor-1/SDF-1) (UniProt P48061 22-93). Kind of test: NMR titration.
Test [2] concerns the target CXCL12_(1), constitutively monomeric CXCL12 variant (L55C/I58C) (UniProt P48061 22-93, L55C | I58C). The test can be described thus: NMR titration.

B1: 4ISIsYTSD10, sTyr7 sulfopeptide of CXCR4 (peptide)
peptide: ISIYTSD
HELM: PEPTIDE1{[ac].I.S.I.[O=C([C@H](Cc1ccc(OS(=O)(=O)O)cc1)N[*:1])[*:2]].T.S.D.[am]}$$$$V2.0
SMILES: CC[C@H](C)[C@H](NC(C)=O)C(=O)N[C@@H](CO)C(=O)N[C@H](C(=O)N[C@@H](Cc1ccc(OS(=O)(=O)O)cc1)C(=O)N[C@H](C(=O)N[C@@H](CO)C(=O)N[C@@H](CC(=O)O)C(N)=O)[C@@H](C)O)[C@@H](C)CC
Take B1: the Kd in test [1] was determined as 4300 µM; in test [2], 6100 µM.
On to Ac-SDNYTEE-NH2 [9SDNYTEE15, unsulfated Tyr12 peptide of CXCR4], for which the Kd in test [1] worked out at 2100 µM; in test [2], 2700 µM.

B2: 9SDNsYTEE15, sTyr12 sulfopeptide of CXCR4 (peptide)
peptide: SDNYTEE
HELM: PEPTIDE1{[ac].S.D.N.[O=C([C@H](Cc1ccc(OS(=O)(=O)O)cc1)N[*:1])[*:2]].T.E.E.[am]}$$$$V2.0
SMILES: CC(=O)N[C@@H](CO)C(=O)N[C@@H](CC(=O)O)C(=O)N[C@@H](CC(N)=O)C(=O)N[C@@H](Cc1ccc(OS(=O)(=O)O)cc1)C(=O)N[C@H](C(=O)N[C@@H](CCC(=O)O)C(=O)N[C@@H](CCC(=O)O)C(N)=O)[C@@H](C)O
As for B2, the Kd in test [1] turned out to be 1000 µM; in test [2] it was 1800 µM.
Regarding Ac-SGDYDSM-NH2 [18SGDYDSM24, unsulfated Tyr21 peptide of CXCR4], the Kd in test [1] worked out at 2700 µM; in test [2] it was 1500 µM.
In the same order, the values of Ac-ISIYTSD-NH2 [4ISIYTSD10, unsulfated Tyr7 peptide of CXCR4] are 1900 µM and 1100 µM.

B3: 18SGDsYDSM24, sTyr21 sulfopeptide of CXCR4 (peptide)
peptide: SGDYDSM
HELM: PEPTIDE1{[ac].S.G.D.[O=C([C@H](Cc1ccc(OS(=O)(=O)O)cc1)N[*:1])[*:2]].D.S.M.[am]}$$$$V2.0
SMILES: CSCC[C@H](NC(=O)[C@H](CO)NC(=O)[C@H](CC(=O)O)NC(=O)[C@H](Cc1ccc(OS(=O)(=O)O)cc1)NC(=O)[C@H](CC(=O)O)NC(=O)CNC(=O)[C@H](CO)NC(C)=O)C(N)=O
On to B3, for which the Kd in test [1] is 1800 µM; in test [2] it was 1600 µM.
